Laboratory results: patent US11814689B2 (priority 2021, dated 2023)

Assays:
[1] = system: plasmid DNA; format: biochemical
[2] = system: fluorescent ssRNA reporter; format: biochemical
[3] = system: plasmid DNA
[4] = system: 2 Kb DNA reporter labelled biotin and digoxigenin; format: biochemical
[5] = system: ssRNA; format: biochemical; conditions: 425 nM ssRNA, 200 nM nuclease, cyclic oligoadenylates
[6] = system: ssDNA; format: biochemical; conditions: for ssDNA cleavage activity: 425 nM ssDNA, 200 nM nuclease, cyclic oligoadenylates
[7] = system: SARS-CoV-2 N gene RNA; format: biochemical; conditions: IVT SARS-CoV-2 N gene fragment spiked in total RNA of negative swab, no RNA capture
[8] = system: fluorescent dsDNA reporter; format: biochemical
[9] = system: library of 46 synthetic RNAs; format: biochemical
[10] = system: cA3 and cA4; format: biochemical
[11] = system: SARS-CoV-2 RNA; format: biochemical

B1: TtCan1: Can1 from Thermus thermophilus, NCBI WP_011229147.1, SEQ ID NO. 61 (protein, listed as Thermus thermophilus)
chain: MQAPVYLCLLGNDPAPAYLGLKVVEREAGRVAKAVFYSFPAWNEEYGKKRQAFFRLLSEKGVLYEERPLEKGLEEAEAREVWVNLTGGAKYWAVRFLGHWRRPGARVFLVEGHRALEAPRALFLWPREEERSLEAEALTLEEYARLYLEPLGEAWERVSPPGAFPPGAQAARLPGREGGVFVVHRGLPYWYWVRPHLGGEAKDMSRKALSAFSGEAKRLGGQLCLPVVPYHKAHLRSRHPKERENVFARWRAWAREYGVFLVDPGRPLEEEVASLIKGKASKKALPLPQEGPLLLALVSEQAVPLYAAYLHAGPREVYLLTTPEMESRLRWAEAFFRGKGVRVHRSFLSGPWALREVRDLLAPVVEEALRRGHPVHANLNSGTTAMALGLYLALRDGARAHYLDGDRLLLLDGGEAEVPWEEGRPEDLLALRGYRFEEEYPDARPDPGLLALAEEILRRWDEVQTSWEASPLVRRFLKFWKKRFGQAFPPKRLSRLKGLPLEYAVYSHLNAHLAPKGGQARMGGHLVPLGGNEALAPQSTEVDGVFFHRGALWFVECKPTDEGLRERAPIMAELVRSVGGVEARGLMVARRWRGAPPPASPNLVYMALEGGEGVGVYRFPEELEKALSRNPAPRRG
[1]
  plasmid DNA cleavage with cA4: comparable to the background activity
  size of plasmid DNA degradation fragments: ~100 bp
[2]
  RNA reporter cleavage compared with AaCan2: requires higher concentrations of cA4 and produces less fluorescent signal
[3]
  DNA sequence cleavage preference: non-sequence specific
[4]
  lateral flow result with cA3: positive result
  lateral flow result with cA4: negative result
[5]
  ssRNA cleavage activity: cA4-dependent single-stranded RNase
[6]
  ssDNA cleavage activity: does not cleave ssDNA

B2: CtNucC: NucC from Clostridium tepidum, NCBI WP_195923598.1, SEQ ID NO. 55 (protein, listed as Clostridium tepidum)
chain: MGQIDIKSLFYSLQTQMCAKLSTNRQHIQHPGIKGDSSELNWIEWLKTYLPKRYSVDKAFIIDCDGNMSDQIDVVIYDQQYSPFVFNQDNAYYIPAESVYAIFEVKQEINKENIIYAGDKTKSVRSLKRTSTAIPHAGGYYAPKPHNKILSGILTLSSVWNPPLGKSFEEAIYSLEDESKLDIGCILAEGSFLADYKNDVLMKSTEEESLIFFFLKLLIELQSLGTTPAIDINCYGRALDSI
[7]
  target RNA concentration detected by TtCsm assay coupled with the nuclease: 10^7 copies/μL
[8]
  cA3 sensitivity relative to AaCan2: 100 fold
  cA3 sensitivity relative to TtCan1: 10 fold
  lowest concentration of cA3 detected: 0.5 nM
[1]
  dsDNase activity among three thermophilic NucC orthologs: highest dsDNase activity
  size of plasmid DNA digestion fragments: 300-400 bp

B3: AaCan2: Can2 from Archaeoglobi archaeon JdFR-42, JGI 2730024700, SEQ ID NO. 59 (protein)
chain: MSHIHVCLVSDQAIPNLTTALQFNPDTTVLLSTNEMKDKAKRLETVLKNKGLKVKTLKISAYDINDVITVSESLLNDCKGCKVSLNITGGTKIGTLGTFQVFYTASKPIFYVNTKDNEIIKLYPEKEQQKYPIEISISIKDYLAVYGFNVKSYVKDDSYIYKRKKVTDYLANLVIHRPNIIGEINYKLQNFEEKSYPLKINITKNKQVIKLYDILKDSGLVKIRNKSTIEIPDVETAKYLNGIWFEEYVYMMAKSLGADEVKLNVKGVWDTVGKHPPTNEFDILISKGNRLFYISCKTANPDRKIDDTDETIGKEYLYELDSISDSALGLFGKRMLASARAIKNDYVRKRAEILKIDIADGQNIATLKGKLQQWLSK
modifications: Archaeoglobi archaeon
[9]
  ssRNA sequence cleavage preference: ACGACG
[10]
  ring-nuclease activity on cyclic nucleotide activator: binds and preserves the cyclic nucleotide
[7]
  target RNA concentration detected by TtCsm assay coupled with the nuclease: 10^5 copies/μL
[1]
  dsDNase activity, activator and metal dependence: Mn^2+- and cA3-dependent dsDNase
[2]
  cA4 concentration giving a similar fluorescent signal: 0.5 nM
  cA4 range in which rate of fluorescent signal is proportional to activator: 1 to 10 nM
  fold less cA4 needed than TtCsm6 for similar fluorescent signal: 20 fold
[11]; RNA capture with AaCan2 readout, no RNA extraction or pre-amplification
  SARS-CoV-2 RNA concentration detected directly in swabs: 5×10^4 copies/μL
[11]; no RNA purification, lysis buffer 0.05% Triton X-100 and 1 mM EGTA, AaCan2 readout
  Ct of unprocessed swab samples detected: > 21.2
[11]; unprocessed swab vs purified RNA
  loss of sensitivity compared to detection using purified RNA: ~5 fold
[5]
  ssRNA cleavage activity: ssRNase when activated with cA4
[6]
  ssDNA cleavage activity: Reproducible cleavage of ssDNA is also detectable
[6]; Mn^2+-specific
  cA4 concentration required for robust ssDNA cleavage: 45 nM
